Data reported in paper PMC8465381, “Dopamine-Conjugated Carbon Dots Inhibit Human Calcitonin Fibrillation” (Nanomaterials, 2021).
Positions of bridges follow the written chain, without caps; N, C: chain ends. No end group written: not given here.

Target: the molecule itself
Assay: thioflavin-T fluorescence kinetics + TEM; 64 μM hCT alone, 50 mM phosphate buffer pH 7.4, 16 μM ThT, 1% DMSO, 25 °C, 384-well nonbinding plate with agitation every 2 h; end products negatively stained for TEM; fibril formation (self-assembly)

B1: Human calcitonin (peptide, UniProt P01258 85-116, looked up)
peptide: CGNLSTCMLGTYTQDFNKFHTFPQTAIGVGAP-NH2
modifications: disulfide 1-7
notes: human calcitonin, 32-residue hormone peptide cut from the calcitonin precursor; numbers count on: the mature protein; Forms amyloid fibrils; preformed fibrils of the same peptide were used as seeds; also called hCT; source: synthetic peptide (Fmoc solid-phase synthesis, RP-HPLC purified)
  binding result: binds
